The target in test [1] is Dengue NS1 protein (serotype not given) (Dengue virus).
Test [2] concerns the target T1, Staphylococcal enterotoxin B (UniProt P01552 28-266).
T1 sequence: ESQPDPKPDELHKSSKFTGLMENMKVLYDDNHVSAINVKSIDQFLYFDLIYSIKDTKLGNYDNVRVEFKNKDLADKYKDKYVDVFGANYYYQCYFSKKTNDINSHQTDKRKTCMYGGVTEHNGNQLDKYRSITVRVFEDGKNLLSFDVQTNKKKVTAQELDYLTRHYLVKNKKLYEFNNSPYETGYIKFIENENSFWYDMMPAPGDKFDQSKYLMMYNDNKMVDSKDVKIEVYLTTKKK
In words: MagPlex sandwich fluoroimmunoassay; capture sdAb attached directly by EDC/sNHS.

B1: DD7-DD7-SpyTag (VHH)
chain: EVQLVQSGGGSVQAGGSLRLSCAHSSITVPDYTIGWFRRAPGKGGEEVSLISMHGGRSWYAGSVKGRFAISRDSVKNTVYLQMNNLKPEDTDIYYCGGTTFGLAAAPNEYDSWGQGSQVTVSSGGGGSGGGGSGSEVQLVQSGGGSVQAGGSLRLSCAHSSITVPDYTIGWFRRAPGKGGEEVSLISMHGGRSWYAGSVKGRFAISRDSVKNTVYLQMNNLKPEDTDIYYCGGTTFGLAAAPNEYDSWGQGSQVTVSSGGGGSGGGGSGSAHIVMVDAYKPTKAAALEHHHHHH
In the case of B1, in test [1], the “fold improvement in ability to detect NS1 (against DD7-gs3k)” value is ~25 fold.

B2: AcVe anti-SEB sdAb monomer (VHH)
VHH: DVQLVESGGGLVQPGGSLRLTCAASGLIFGSYAMGWFRQAPGKAREFVAAISWSGGDTYADSVKGRFTISRDNAKNTVYLQMNSLEPEDTAVYSCAAVGSKYYISKDAKDYGYWGQGTQVTVSS
In the case of B2, the binding result in test [2] is reported as “binds”.

For the origin of these results see patent publication US20200240982A1 (GOVERNMENT OF THE UNITED STATES OF AMERICA AS REPRESENTED …, published 2020).
